# From publication PMC12585912, “Solution structure of the Sox2 DNA-binding domain reveals conformational selection in DNA binding”
# B1: FGF4 DNA 13-mer (dsDNA)
# DNA 1: ACTCTTTGTTCGA
# DNA 2: TCGAACAAAGAGT
# Biological target: Sox2(24-118) DBD (UniProt P48431 24-118)
# Experiment: NMR titration; 0.5 M ionic strength; specific binding in slow exchange, nonspecific mode reduced; 20 mM Tris, 135 mM KCl, 15 mM NaCl, pH 7.3 (NMR: 10% D2O, 0.01% NaN3, 293 K; nanoDSF: 25 uM protein, 1 mM DTT in protein/DNA buffer, 288-368 K at 1 K/min)
# Settings: protein: recombinant; tags: N-terminal T7-tag; blunt
# Chain of Sox2(24-118) DBD (P48431 24-118): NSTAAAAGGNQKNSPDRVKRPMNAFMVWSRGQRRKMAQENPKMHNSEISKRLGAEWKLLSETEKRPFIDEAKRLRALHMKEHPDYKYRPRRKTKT
binder,measurement,value
B1,binding result,binds
